Laboratory results taken from PMC4944158.

Target: GST-RabGAP5 C-terminal aa578-760
Test: pull-down; GST fusion on Glutathione Sepharose beads incubated with supernatants of homogenised synaptosomes of wt and σ1B −/− mouse brains, 4 hours at RT, PBS; Western blot

percent more AP-1 isolated than from wt extracts: 30%
Substance: AP-1/σ1A complexes of σ1B −/− mice (from UniProt P22892 1-822; O35643 1-943; P35585 1-423; P61967 1-158)
